Tests used:
[1] = system: anti-pegloticase antibodies, anti-PEG antibodies; assay: Immunogenicity in clinical trials: antibody incidence and its relation to response and infusion reactions; type: in vivo, human
Procedure: A relationship between the loss of urate-lowering efficacy, incidence of IRs, and high-titer antibody formation was identified in a post-hoc analysis of the pooled data from the Phase 3 studies. […] In one study, 69 (41%) of 169 patients receiving pegloticase developed high titer anti-pegloticase antibodies and subsequently lost response to the drug. In a second study, only 1 of 52 participants with high antibody titers maintained a response to pegloticase (serum urate <6 mg/dL). In addition, 60% participants with high titers developed IR. Anti-pegloticase antibodies were largely directed to the polyethylene glycol (PEG) portion of the molecule and altered the pharmacokinetic clearance of pegloticase, resulting in inhibition of SUA lowering activity. […] In addition, 31 of 52 (60%) patients with titers exceeding 1:2430 developed IRs. […] By preventing the formation of anti-pegloticase antibodies, a tolerizing dose regimen should prevent loss of response to the drug and decrease the incidence of IRs associated with it.
Anti-pegloticase antibodies developed in 92% of patients treated with KXX every 2 weeks, and 28% for placebo. Anti-PEG antibodies were also detected in 42% of patients treated with KXX. High anti-pegloticase antibody titer was associated with a failure to maintain pegloticase-induced normalization of uric acid. The impact of anti-PEG antibodies on patients' responses to other PEG-containing therapeutics is unknown.
There was a higher incidence of infusion reactions in patients with high anti-pegloticase antibody titer: 53% (16 of 30) in the KXX every 2 weeks group compared to 6% in patients who had undetectable or low antibody titers.

rats = assay: Reproductive toxicity and fertility in rats; type: in vivo, rat
Text: The genotoxic potential of pegloticase has not been evaluated.

rabbits = assay: Reproductive toxicity in rabbits; type: in vivo, rabbit
dogs = assay: Animal toxicology in dogs (IV); type: in vivo, dog; details: for vacuoles in the spleen, adrenal glands, and heart after recovery: 1-year recovery period; for vacuoles in the liver, duodenum, and jejunum after recovery: 3-month recovery period
Procedure: Organs with cytoplasmic vacuoles included the spleen, adrenal gland, liver, heart, duodenum, and jejunum. Vacuoles in the spleen, adrenal glands, and heart persisted after a 1-year recovery period at pegloticase dose (≥1.5 mg/kg in dogs) approximately 5 times the MRHD, but were absent at a dose similar to the MRHD. Vacuoles in the liver, duodenum, and jejunum persisted after a 3-month recovery period at a pegloticase dose (10 mg/kg in dogs) approximately 30 times the MRHD, but were absent at doses less than or equal to 1.5 mg/kg approximately 5 times and similar to the MRHD. The edema and histiocyte infiltration in the aortic outflow tract was absent after recovery periods of 6 and 12 months, respectively.
Vacuoles in the spleen, liver, duodenum, and jejunum were within macrophages and most likely represented phagocytic removal of pegloticase from the circulation. […] In the aortic outflow tract of the heart, vacuoles were in the cytoplasm of endothelial cells in the intimal lining of the aorta. In the adrenal gland, vacuoles were located within cortical cells in the Zona reticularis and Zona fasciculata. The clinical significance of these findings and the functional consequences are unknown.

[2] = system: patients with chronic gout refractory to conventional therapy; assay: Infusion reactions with the dosage regimen described herein (stopping at SUA >6 mg/dL); type: in vivo, human; details: dosage regimen as described herein, strict adherence to stopping at serum uric acid greater than 6 mg/dL
Procedure: Study Design—In order to evaluate a tolerizing regimen of pegloticase (i.e., the main study), an open label, multicenter, 24-week study is performed. Eligible subjects weighing <120 kg receive pegloticase 8 mg intravenously (IV) on a weekly basis (week 1 through week 3—“Tolerizing Period”), followed by 8 mg IV every 2 weeks through week 25 for a total of 14 doses. Subjects weighing ≥120 kg are sequentially assigned to 1 of 3 different loading doses (8, 12, and 16 mg) on Study Day 1, and then receive 8 mg on weeks 2 and 3, followed by 8 mg every 2 weeks through week 25 for a total of 14 doses.
Eligible subjects weighing <120 kg will receive pegloticase 8 mg IV every 2 weeks through week 25 for a total of 13 doses. Subjects will also receive AZA (1.25 mg/kg orally daily for 1 week then 2.5 mg/kg orally daily) beginning 2 weeks prior to the first dose of pegloticase through week 25. Subjects are monitored for efficacy and safety endpoints, including hematology and liver function tests, through week 25. Subjects also have blood drawn for trough pegloticase, anti-pegloticase antibody, and anti-PEG antibody levels prior to each dose after week 1, on weeks 3, 5, 7, 9, 11, 13, 15, 17, 19, 21, 23, and 25; and sampling for trough AZA metabolite levels prior to all doses of pegloticase. […]

[3] = KXX exposure (AUC) by patient weight and age; type: in vivo, human
Text: In some embodiments, heavier and/or younger patients may have a higher incidence of anti-KXX antibodies, or may have higher anti-KXX drug titers, than lighter and/or older patients. In other embodiments, lighter and/or older patients may have higher drug loading of KXX than heavier and/or younger patients. In some embodiments, lighter patients may have higher exposures of KXX than heavier patients. For example, in some embodiments, lighter patients may have greater than 2-fold exposure to KXX than heavier patients. In some embodiments, lower drug levels in a patient may result in anti-KXX antibodies. […] In other embodiments, older patients may have higher exposures of KXX than younger patients. For example, in some embodiments, older patients may have greater than 2-fold exposure to KXX than younger patients. […] Thus, in some embodiments, additional 8-mg doses of KXX may be beneficial for younger and/or heavier patients. In other embodiments, younger and/or heavier patients may benefit from one or more loading doses of 16 mg of KXX.

[4] = system: anti-pegloticase antibodies, anti-PEG antibodies; details: cited from earlier work
[5] = system: patients with chronic gout refractory to conventional therapy; details: bi-weekly or every 4 weeks for up to 30 months, 149 patients; cited from earlier work

For pegloticase, the “patients who developed anti-pegloticase antibodies” value ([1]; KXX every 2 weeks) was 92%, the “incidence of infusion reactions in patients with high anti-pegloticase antibody titer” value ([1]; KXX every 2 weeks group, 16 of 30) was 53% and the “incidence of infusion reactions in patients with undetectable or low antibody titers” value ([1]; human, in vivo) was 6%. For the same substance, the “patients with anti-PEG antibodies detected” value ([1]; patients treated with KXX) was 42%, the “mean fetal body weights” value (rats; approximately 10 times the MRHD, maternal doses up to 10 mg/kg twice weekly) was “No effects” and the “mean fetal and pup body weights” value (rats; approximately 50 times the MRHD, maternal doses up to 40 mg/kg every other day) was “Statistically significant decreases”. For the same substance, the teratogenicity (rats; approximately 50 times the MRHD, maternal doses up to 40 mg/kg twice weekly) was “not teratogenic”, the impairment on fertility (rats; doses up to 40 mg/kg every other day (approximately 50 times the MRHD)) was “no evidence of impairment” and the “mean fetal body weights” value (rabbits; approximately 25 times the MRHD, maternal doses up to 10 mg/kg twice weekly) was “No effects”. For the same substance, the “mean fetal and pup body weights” value (rabbits; approximately 75 times the MRHD, maternal doses up to 30 mg/kg every other day) was “Statistically significant decreases”, the teratogenicity (rabbits; approximately 75 times the MRHD, maternal doses up to 30 mg/kg twice weekly) was “not teratogenic” and the “vacuoles in the spleen, adrenal glands, and heart after recovery” value (dogs; dose similar to the MRHD) was “absent”. For the same substance, the “vacuoles in the spleen, adrenal glands, and heart after recovery” value (dogs; ≥1.5 mg/kg, approximately 5 times the MRHD) was “persisted”, the “vacuoles in the liver, duodenum, and jejunum after recovery” value (dogs; 10 mg/kg, approximately 30 times the MRHD) was “persisted” and the “vacuoles in the liver, duodenum, and jejunum after recovery” value (dogs; doses less than or equal to 1.5 mg/kg) was “absent”. For the same substance, the organ findings (dogs; IV doses of ≥0.4 mg/kg, similar to and higher than the MRHD) was “caused cytoplasmic vacuoles in multiple organs, and edema and histiocyte infiltration in the aortic outflow tract”, the “edema and histiocyte infiltration in the aortic outflow tract after recovery” value (dogs; recovery periods of 6 and 12 months, respectively) was “absent” and the “infusion reactions that occurred” value [2] was “only a single infusion reaction occurred”. For the same substance, the “mean area under the curve (AUC)” value ([3]; heavier patients) was “about 4.04 mg/L”, the “exposure to KXX, lighter versus heavier patients” value ([3]; human, in vivo) was “greater than 2 fold” and the “exposure to KXX, older versus younger patients” value ([3]; human, in vivo) was “greater than 2 fold”. The “mean area under the curve (AUC)” value ([3]; lighter patients) was “about 8.92 mg/L”, the “mean area AUC” value ([3]; older patients) was “about 8.86 mg/L” and the “mean area AUC” value ([3]; younger patients) was “about 3.93 mg/L”. The “patients with antibody titer exceeding 1:2430 at any time who maintained a response” value ([4]; another study, 7 of 65) was 10.8%, the “patients with titers exceeding 1:2430 who developed IRs” value ([4]; another study, 31 of 52) was 60% and the “patients who never had an antibody titer above 1:2430 who maintained a response” value ([4]; another study, 58/65) was 89.2%. The “patients who developed high titer anti-pegloticase antibodies and subsequently lost response” value ([4]; one study, 69 of 169 patients) was 41%, the “participants with high antibody titers who maintained a response (serum urate <6 mg/dL)” value ([4]; second study) was 1 of 52 and the “participants with high titers who developed IR” value ([4]; second study) was 60%. For the same substance, the long-term safety [5] was “No new safety signals were observed”.
